According to PMC7948407 (2020):

T1: SAT C-terminal C10 peptide C-terminal 10 residues (Haemophilus influenzae, UniProt P43886)
T1 chain: GIDDGMNLNI

T2: SAT C-terminal C10 peptide C-terminal 10 residues (Salmonella typhimurium, UniProt P29847)
T2 chain: HHTFEYGDGI

B1: Cysteine synthase (HiCS) (protein)
chain: MAIYADNSYSIGNTPLVRLKHFGHNGNVVVKIEGRNPSYSVKCRIGANMVWQAEKDGTLTKGKEIVDATSGNTGIALAYVAAARGYKITLTMPETMSLERKRLLCGLGVNLVLTEGAKGMKGAIAKAEEIVASDPSRYVMLKQFENPANPQIHRETTGPEIWKDTDGKVDVVVAGVGTGGSITGISRAIKLDFGKQITSVAVEPVESPVISQTLAGEEVKPGPHKIQGIGAGFIPKNLDLSIIDRVETVDSDTALATARRLMAEEGILAGISSGAAVAAADRLAKLPEFADKLIVVILPSASERYLSTALFEGIEG
B2: Cysteine synthase (StCS) (protein)
chain: SKIYEDNSLTIGHTPLVRLNRIGNGRILAKVESRNPSFSVKCRIGANMIWDAEKRGVLKPGVELVEPTSGNTGIALAYVAAARGYKLTLTMPETMSIERRKLLKALGANLVLTEGAKGMKGAIQKAEEIVASDPQKYLLLQQFSNPANPEIHEKTTGPEIWEDTDGQVDVFISGVGTGGTLTGVTRYIKGTKGKTDLITVAVEPTDSPVIAQALAGEEIKPGPHKIQGIGAGFIPGNLDLKLIDKVVGITNEEAISTARRLMEEEGILAGISSGAAVAAALKLQEDESFTNKNIVVILPSSGERYLSTALFADLFTEKELQQ

Legend:
[1] = target: T1, SAT C-terminal C10 peptide C-terminal …; experiment: PLP fluorescence titration
[2] = target: T2, SAT C-terminal C10 peptide C-terminal …; experiment: PLP fluorescence titration

Row | Binder | Kd [1] | Kd [2]
1 | B1 | 3.4 µM | –
2 | B2 | – | 0.29 µM
